Source: patent US20230257791A1

Biological target: recombinant gp140 from the clade C strain 92BR025 (HIV antigen), Sino Biological, Inc. (HIV, clade C strain 92BR025)
Assay: SPR, Biacore T200; gp140 immobilized, GRFT as analyte at 12.5-400 nM; heterogeneous ligand model; mean ± SD of replicates

recombinant gp140 from the clade C strain 92BR025 (HIV antigen), Sino Biological, Inc. (HIV, clade C strain 92BR025), sequence (O12164 32-677): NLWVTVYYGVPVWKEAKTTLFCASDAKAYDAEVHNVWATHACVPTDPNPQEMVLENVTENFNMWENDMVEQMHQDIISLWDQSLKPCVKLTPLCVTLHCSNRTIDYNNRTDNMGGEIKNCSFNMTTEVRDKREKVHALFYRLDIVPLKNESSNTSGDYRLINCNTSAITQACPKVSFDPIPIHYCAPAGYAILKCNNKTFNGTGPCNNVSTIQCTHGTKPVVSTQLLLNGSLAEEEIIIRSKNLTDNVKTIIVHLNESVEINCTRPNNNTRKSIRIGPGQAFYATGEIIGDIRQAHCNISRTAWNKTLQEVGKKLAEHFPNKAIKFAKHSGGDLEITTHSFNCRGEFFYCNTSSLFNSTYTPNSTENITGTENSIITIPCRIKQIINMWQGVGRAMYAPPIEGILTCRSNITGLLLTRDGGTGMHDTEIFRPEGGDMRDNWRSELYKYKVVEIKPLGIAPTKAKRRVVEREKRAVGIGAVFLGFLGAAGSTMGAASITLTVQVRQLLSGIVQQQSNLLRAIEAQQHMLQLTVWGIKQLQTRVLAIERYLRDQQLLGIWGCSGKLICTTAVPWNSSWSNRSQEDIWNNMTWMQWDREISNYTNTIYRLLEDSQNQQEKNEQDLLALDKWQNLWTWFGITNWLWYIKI

“precipitation-purified Griffithsin (GRFT), recombinant, expressed in E. coli strain DLF_0025 from plasmid pHC-Kan-phoAp-GRFT (from UniProt P84801 1-121)” showed a Kd of 4.4 nM.
